This passage reports fold reduction of the EC50 of NF-κB reporter activity of the CTLL-2 reporter cell line in the presence of EDA (coated 11-A-12 fibronectin) against no EDA results from paper PMC7040017.

This experiment addresses 11-A-12 recombinant fibronectin fragment, containing the EDA domain.

As to “F8 single-chain variable Fragment (scFv) linked to a single unit of murine GITRL (from UniProt Q7TS55 46-170)”, the fold reduction of the EC50 of NF-κB reporter activity of the CTLL-2 reporter cell line in the presence of EDA (coated 11-A-12 fibronectin) against no EDA is 5 fold.
